Source: the supplement of paper PMC12042874
± gives the uncertainty stated by the source.

Assay: amyloid nucleation score (Sup35N fusion, yeast selection) (log enrichment); library NNK3; higher = more nucleation; inactive = no reads after selection
In short: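 Growth for 7 days at 30°C on medium lacking adenine and uracil followed a 24-hour induction with 100 μM copper sulfate of psi-negative yeast expressing peptides of 20 random codons fused to Sup35N. Input and output plasmid inserts were sequenced with Illumina, and sequences with under 100 input reads were excluded. Nucleation score is the DiMSum log enrichment of output over input reads, centred on the mode score of non-aggregating sequences.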

Row | Substance | amyloid nucleation score
1 | LNKCLAGFIHMEVWILRMKL | inactive
2 | LNLAKQCMLPSFPSYMVWYF | inactive
3 | LNMARDYFVFQSPADPGCLV | inactive
4 | LNMHFENTIRGVPYTLVSGR | inactive
5 | LNMKTV | -0.702 ± 1
6 | LNRLSCFSCPLFV | inactive
7 | LNSFFAAIHILMGHFKRILS | inactive
8 | LNSLLY | inactive
9 | LNTNWCSSK | inactive
10 | LNVVKNYIGLVRRHIIRVHF | inactive
11 | LNWLC | 1.07 ± 0.086
12 | LNWSKEAWCSYNILLNYGGW | inactive
13 | LPAGVFTDSACVVVSANKAT | inactive
14 | LPAMIGIWCILTH | inactive
15 | LPGINCARHK | -0.918 ± 1.4
16 | LPHPALKDFRISVRQLIWVR | 1.04 ± 0.17
17 | LPLFRISAPMVMYVLLYVPW | inactive
18 | LPLMDKLR | inactive
19 | LPNRYVMINGCIRQFAKCDI | 1.58 ± 0.08
20 | LPSGFLGPLIPVESQIPRTQ | inactive
21 | LPVEMKLLIMMRVPSFHFRH | inactive
22 | LPVHLDNMCFHVVRAEESRR | inactive
23 | LQDIPLFFCCVLFCVATMAL | inactive

Row | Substance | amyloid nucleation score
24 | LQFPPNLSMLCKVTQPSNNW | inactive
25 | LQILLSR | inactive
26 | LQPKLGIT | inactive
27 | LQRTWLKVFGASCFICDDFL | 1.99 ± 0.097
28 | LRAEVLSSYVTWVHAEGPHC | inactive
29 | LRAKFLILWSRFMQGMQGVT | inactive
30 | LRCHLRKGSRISRSL | inactive
31 | LRCKKRLVRFLHVHEFAVEY | -0.211 ± 0.52
32 | LREPRGGSWRRLDCFKCRLG | inactive
33 | LRFTRRFYSRGWVRW | inactive
34 | LRFVHDVLDFGASMSLRRK | 0.606 ± 0.1
35 | LRGGMIEPNTRRYS | 1 ± 0.15
36 | LRGVGDRIGNTSGISGLWPG | 0.759 ± 0.19
37 | LRHHSSSVAPVRVGILRCNS | inactive
38 | LRMVRSYVLSNGCL | inactive
39 | LRPVRYRLCVRFNWMCVRCK | -0.582 ± 0.95
40 | LRQSTSMPCNFCIYLEERKD | 1.43 ± 0.073
41 | LRRQSVMWDKSYAGTWILES | inactive
42 | LRSFKSKICVERLRDEIILL | inactive
43 | LRTSVFRVLVNSILVKNLIS | inactive
44 | LRTTDSGSGIYLTNSVHGFV | inactive
45 | LRVFWRTFCVSWSECNKMLE | inactive
46 | LRVYYYNMILDDFCVFVLEG | 1.48 ± 0.13

Row | Substance | amyloid nucleation score
47 | LRWIGH | inactive
48 | LRWMFPLPRNVSHCSLA | inactive
49 | LRWSIEGFLVSMMKY | inactive
50 | LSAIFLCLSVCLGLHCVGLP | inactive
51 | LSCSQKV | inactive
52 | LSDSY | inactive
53 | LSECRKD | inactive
54 | LSELYHTFYSVVNGGHVLMI | inactive
55 | LSFPYMMTIFCATRFTDPLM | inactive
56 | LSIGFNLWSKLKYSRKVSGM | inactive
57 | LSISIMWCFIFGYIFMCSRC | inactive
58 | LSISYSIGGDGDMIGNAACV | inactive
59 | LSKLPTKMACPLMVRS | 0.928 ± 0.24
60 | LSKQIVIRINSNNCNGSVFF | 2.7 ± 0.049
61 | LSLATTSTLTLPMWKGTRLN | 0.744 ± 0.2
62 | LSLVDEFQSPLLQLLFVQVA | inactive
63 | LSLVQGR | inactive
64 | LSMCSLHRNTVFWFRISLMI | inactive
65 | LSPGTFCRVDSTPVWVNACP | -0.294 ± 0.47
66 | LSRFQVGFHQIDIMRGDVWK | inactive
67 | LSSCLSRI | inactive
68 | LSSFHHRQVLHRAVAKPFTA | 0.245 ± 0.75
69 | LSTNTERAFTAWNVIGELGD | inactive

Row | Substance | amyloid nucleation score
70 | LSVNYKLGQYRTLWFHHSLG | inactive
71 | LSVVTSTHEDASSLNTTRWM | inactive
72 | LSYKIIYTGIGCEYAYGFIE | inactive
73 | LSYSAGEIRCVGSCWANESL | inactive
74 | LTCWSVVMFTCHP | inactive
75 | LTHRAVGLSNVNTPPSFCMR | 0.842 ± 0.2
76 | LTICAFVVYVFIYKYKMGVM | inactive
77 | LTIVAYVVATYSFCWWISVG | inactive
78 | LTKCPCRLLCRLRSRARRMG | -0.328 ± 0.98
79 | LTLLCSDECWVFMSMGDRTF | inactive
80 | LTQMCFTTSVFLRLAWVPFK | inactive
81 | LTSESSDEICGGRATSVLCL | inactive
82 | LTSMNSGLSYLKLFASQNLR | inactive
83 | LTSPFDPISLPKS | inactive
84 | LTTRGRNTRSEDMGEPGLWA | inactive
85 | LTWKFSATCIGVKT | inactive
86 | LTYHLFYMVADACVIWYDCS | 0.833 ± 0.32
87 | LTYTHLCEPSEFR | inactive
88 | LVCDHGSCVKMVIMTDFMSS | inactive
89 | LVCHFLDEDCLFACILQNMR | inactive
90 | LVFFFLWHSHENFNHDLVSK | inactive
91 | LVFMQRNIENISCCVTLYYQ | 2.51 ± 0.071
92 | LVGGTTLLIPVCS | inactive

Row | Substance | amyloid nucleation score
93 | LVGLGLGFCYLIKTFVTLLV | inactive
94 | LVIASGRVIVIVCYV | inactive
95 | LVIIQCSNRGVSKYRLVGTD | 1.82 ± 0.071
96 | LVILMSSHIEFLGTYFNEKL | inactive
97 | LVILVVDSRRYDMCLSNRDF | inactive
98 | LVKLCIFGLRDGYTVFEYMG | inactive
99 | LVKTCRYRGSDLSVLVGVRI | inactive
100 | LVLSWVITEVMDRVWRGSRG | inactive
101 | LVNLTVTYISQYFPFYDSPT | 2.92 ± 0.062
102 | LVRIMYL | inactive
103 | LVRKAAVPN | inactive
104 | LVRSNGC | inactive
105 | LVSERKAKNSRSGSLAFFRR | inactive
106 | LVSLLVWPYLAWCQGCYSVE | inactive
107 | LVVLLRFCGRAPGIGQSMGD | inactive
108 | LVVRLIDF | inactive
109 | LVVYYYLCACNYGARRFSWC | 1.15 ± 0.13
110 | LVYLAF | inactive
111 | LWDDMVIMFGPVICYGMASG | inactive
112 | LWIDLWFILYWPGSIDCGEC | -0.288 ± 0.45
113 | LWKMILGTFMTQMCL | inactive
114 | LWLTLGDGIEGVYPRVGVKL | inactive
115 | LWPIGIFKKCYVDRICYYCV | inactive

Row | Substance | amyloid nucleation score
116 | LWRDSGTITDGFECFSME | inactive
117 | LWRGLVIWLMLSGLKCGLHL | inactive
118 | LWVRIKARTFNFS | 0.228 ± 0.19
119 | LWWISWRRGSQSMVVSG | inactive
120 | LYAYVQVIGDQA | inactive
121 | LYGVNSCLIH | inactive
122 | LYISNFANEINA | inactive
123 | LYIWSIGLLEQLGNGMQASR | inactive
124 | LYKGSHWDQAFLSVWYLGVL | inactive
125 | LYLLSKRFHNLYLLDKVLKY | inactive
126 | LYLVGIMYASTQYTWRQLIN | inactive
127 | LYMDYLQNVNLYGMFI | inactive
128 | LYNILFWTPNFRFVSWYHCI | inactive
129 | LYNRQVGKDANSFLYNRASQ | inactive
130 | LYRSMH | inactive
131 | LYSHSGSFSIGSQFNFVWFT | 1.44 ± 0.14
132 | LYSKCFGVRLHYVFSMSWSG | inactive
133 | MAEWENRLARYSGICGSSLP | inactive
134 | MAFGWWLDSMLYFITDALVP | inactive
135 | MAINYTFFPPRLVT | inactive
136 | MAKTMM | inactive
137 | MAKVLHNWFFDRYRFVMFIG | inactive
138 | MCKGR | inactive

Row | Substance | amyloid nucleation score
139 | MCKRGRDCGLLFVSTDDLGD | inactive
140 | MCLYQGESRYGSYLYFTDIN | inactive
141 | MCRMRSW | inactive
142 | MCVWVWI | 2.06 ± 0.092
143 | MDLCMETGQYSLRNTVCAFL | inactive
144 | MDLYMTSWEFTVLSLEKMGR | inactive
145 | MDSCFRYVTYVTVLGLK | inactive
146 | MDVYLRCSGYILTPKMAWSQ | inactive
147 | MECELHTDGRSVACRHT | inactive
148 | MELCTLMCHYVVYSVVNWTY | inactive
149 | MEMLVVIRIARRMYDGGCLS | -0.423 ± 0.45
150 | MFCSIIKSQTVAFLVGSSFG | 0.145 ± 0.26
151 | MFDLYN | inactive
152 | MFGFRNITK | 0.583 ± 0.2
153 | MFLKMRWSNAVRMARKCNLE | inactive
154 | MFTGGMFRKVTIQIL | inactive
155 | MGEMRMLVTVT | inactive
156 | MGFVHINGQCTQLLCCSRLK | 1.94 ± 0.072
157 | MGHDHHWSGSDMGS | inactive
158 | MGKVARRA | inactive
